Laboratory results published in patent US20240075068A1 (GADETA B V, published 2024).

Key:
[1] = target: Endothelial protein C receptor (EPCR) peptide on (human); experiment: TEG library γ-random/δ-random, 16 h with Luc-Tom HT-29 (cells that express the antigen), E:T 1:3; CD69/CD107a sort, NGS read ratio; Fig. 9; full-length, on cells; conditions: chains Vgamma:Vdelta
[2] = target: T1, endothelial protein C receptor (EPCR) on HT-29 cells (UniProt Q9UNN8 18-238, limits assumed); experiment: flow cytometry on HT-29 cells (wild-type, EPCR-enhanced, EPCR KO), streptavidin-A647 detection
T1 construct: whole, on cells; The description says 'preferably human EPCR'; HT-29 is a human cell line; also called recognised target; target antigen
T1 sequence (looked up): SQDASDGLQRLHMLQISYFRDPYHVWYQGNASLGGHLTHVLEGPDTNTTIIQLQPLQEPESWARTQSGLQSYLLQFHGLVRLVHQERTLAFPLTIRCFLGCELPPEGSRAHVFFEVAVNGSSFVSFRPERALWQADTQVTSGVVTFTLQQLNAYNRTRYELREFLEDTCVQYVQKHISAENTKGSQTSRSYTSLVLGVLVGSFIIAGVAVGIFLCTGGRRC
Experimental: Target cells mock treated with PBS served as control binding (FIG. 15A). […] Mock treated and unstained target cells served as controls. Data was analysed with flowjo and shown as histograms.
(§1) Trypsinized HT-29 target cells seeded in 96-well round bottom-plates were incubated for 2 hours at 37° C. to recover cell surface expression molecules. […] Unbound sTCR/TCR-CD3 bispecific engager was washed. Bound sTCR or TCR-CD3 bispecific engager was stained respectively with streptavidin-labelled A647 (BioLegend, CA, USA) or anti-His-APC (BioLegend). Staining was determined with FACS flow cytometry was results were analyzed with Flowjo software.
The soluble γδTCRs were used to assess specific binding to HT-29 cells, HT-29 knocked out (KO) for the expressed target (EPCR) or HT-29 cells with ectopic target expression. Bound soluble γδTCRs were targeted with a secondary streptavidin A647-labelled antibody that could be detected with FACS flow cytometry.

[3] = target: T1, endothelial protein C receptor (EPCR) …; experiment: flow cytometry on HT-29 cells (wild-type, EPCR ectopic, EPCR KO), anti-His-APC detection
Experimental: PBS-mock treated (secondary only) or unstained target cells served as controls. Data was analysed with flowjo and shown as histograms.
as §1
The γδTCR-CD3 bispecific engagers were used in binding experiments utilizing HT-29 cells, HT-29 with the target antigen (EPCR) knocked out (KO) or with ectopic expression of the target. Bound γδTCR-CD3 bispecific engagers were targeted with an anti-His-APC-labelled secondary antibody that could be detected with FACS flow cytometry.

B1: E57 G7/D5 (protein)
chain 1: SSNLEGRTKSVIRQTGSSAEITCDLAEGSTGYIHWYLHQEGKAPQRLLYYDSYTSSVVLESGISPGKYDTYGSTRKNLRMILRNLIENDSGVYYCATWEAFYYKKLFGSGTTLVVT
chain 2: DQQVKQNSPSLSVQEGRISILNCDYTNSMFDYFLWYKKYPAEGPTFLISISSIKDKNEDGRFTVFLNKSAKHLSLHIVPSQPGDSAVYFCAASSPIKGYTGSDKLIFGKGTRVTVEP
- enrichment of CD69+/CD107a+ over CD69-/CD107a- reads [1]: > 170%

B2: sE57 G2/D1 soluble γδTCR (affinity decreased variant, without cysteine) (TCR, V domains shown)
V domain 1: SSNLEGRTKSVIRQTGSSAEITCDLAEGSTGYIHWYLHQEGKAPQRLLYYDSYTSSVVLESGISPGKYDTYGSTRKNLRMILRNLIENDSGVYYCATWDGYKKLFGSGTTLVVTD
V domain 2: DQQVKQNSPSLSVQEGRISILNCDYTNSMFDYFLWYKKYPAEGPTFLISISSIKDKNEDGRFTVFLNKSAKHLSLHIVPSQPGDSAVYFCAASSPIRGYTSGSDKLIFGKGTRVTVEP
modifications: biotinylated via Avi-tag (BirA co-transfection in the presence of biotin)
notes: also called G2/D1 variant
- binding result [2]: no binding (tested: 10 µg)

B3: soluble γδTCR-CD3 bispecific engager comprising the G2/D1 variant regions (TCR, V domains shown)
V domain 1: B2 V domain 1
V domain 2: B2 V domain 2
notes: This is a TCR-scFv fusion; also called G2/D1 γδTCR-CD3 bispecific engager; G2D1 γδTCR-CD3 bispecific engager
- binding result [3]: no binding (tested: 5 µg)
